Laboratory results: article doi:10.1101/2024.03.12.584565 (bioRxiv, 2024)

T1: recombinant human Wapl (human, UniProt Q7Z5K2 1-1190)
T1 sequence: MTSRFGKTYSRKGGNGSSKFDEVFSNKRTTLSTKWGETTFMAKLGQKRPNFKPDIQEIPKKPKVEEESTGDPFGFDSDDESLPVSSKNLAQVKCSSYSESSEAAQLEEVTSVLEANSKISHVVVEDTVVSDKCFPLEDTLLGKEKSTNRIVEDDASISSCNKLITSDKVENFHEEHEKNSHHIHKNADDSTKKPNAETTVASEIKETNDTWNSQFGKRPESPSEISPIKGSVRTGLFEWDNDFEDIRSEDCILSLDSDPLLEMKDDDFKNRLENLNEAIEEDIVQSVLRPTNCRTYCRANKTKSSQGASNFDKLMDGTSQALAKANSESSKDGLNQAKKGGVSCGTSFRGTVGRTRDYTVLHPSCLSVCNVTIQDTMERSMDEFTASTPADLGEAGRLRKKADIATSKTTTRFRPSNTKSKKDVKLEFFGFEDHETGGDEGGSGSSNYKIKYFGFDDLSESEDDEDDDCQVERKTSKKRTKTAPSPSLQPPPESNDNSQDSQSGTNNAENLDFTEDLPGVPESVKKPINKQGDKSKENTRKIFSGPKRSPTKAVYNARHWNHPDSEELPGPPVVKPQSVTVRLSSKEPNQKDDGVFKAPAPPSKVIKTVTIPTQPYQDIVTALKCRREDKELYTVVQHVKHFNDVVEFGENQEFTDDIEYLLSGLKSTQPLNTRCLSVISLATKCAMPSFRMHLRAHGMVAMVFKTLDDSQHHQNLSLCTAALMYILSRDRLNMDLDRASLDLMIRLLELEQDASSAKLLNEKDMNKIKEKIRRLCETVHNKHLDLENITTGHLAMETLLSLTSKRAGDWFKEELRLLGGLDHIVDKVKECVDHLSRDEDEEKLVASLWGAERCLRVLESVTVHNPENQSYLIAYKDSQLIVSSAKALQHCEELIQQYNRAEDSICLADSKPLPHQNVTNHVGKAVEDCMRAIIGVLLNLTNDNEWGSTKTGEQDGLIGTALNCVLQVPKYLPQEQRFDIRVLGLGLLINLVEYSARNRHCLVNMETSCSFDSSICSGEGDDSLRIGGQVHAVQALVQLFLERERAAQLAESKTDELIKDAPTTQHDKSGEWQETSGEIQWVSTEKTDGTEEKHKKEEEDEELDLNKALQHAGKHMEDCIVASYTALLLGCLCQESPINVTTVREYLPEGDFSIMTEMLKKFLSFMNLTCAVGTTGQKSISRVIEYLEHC


Legend:
[1] = molecular target: His6-SUMO3-sororin (human, UniProt Q96FF9 1-252); test: pull-down
[2] = molecular target: T1, recombinant human Wapl; test: pull-down

His6-SUMO3-sororin, sequence (Q96FF9 whole entry): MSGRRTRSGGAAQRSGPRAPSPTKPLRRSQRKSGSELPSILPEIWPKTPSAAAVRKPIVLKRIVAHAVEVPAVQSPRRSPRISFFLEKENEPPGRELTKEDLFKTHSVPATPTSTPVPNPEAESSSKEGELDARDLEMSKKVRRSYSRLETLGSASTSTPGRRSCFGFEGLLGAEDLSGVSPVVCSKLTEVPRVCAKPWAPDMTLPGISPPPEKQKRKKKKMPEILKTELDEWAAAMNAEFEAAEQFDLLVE

| binding result [1] | binding result [2] | Binder |
| --- | --- | --- |
| binds |  | Flag-tagged Pds5b-Ser1177,1182,1209Ala (3A), untreated or exposed to Nek2a (natural protein) MAHSKTRTNDGKITYPPGVKEISDKISKEEMVRRLKMVVKTFMDMDQDSEEEKELYLNLALHLASDFFLKHPDKDVRLLVACCLADIFRIYAPEAPYTSPDKLKDIFMFITRQLKGLEDTKSPQFNRYFYLLENIAWVKSYNICFELEDSNEIFTQLYRTLFSVINNGHNQKVHMHMVDLMSSIICEGDTVSQELLDTVLVNLVPAHKNLNKQAYDLAKALLKRTAQAIEPYITNFFNQVLMLGKTSISDLSEHVFDLILELYNIDSHLLLSVLPQLEFKLKSNDNEERLQVVKLLAKMFGAKDSELASQNKPLWQCYLGRFNDIHVPIRLECVKFASHCLMNHPDLAKDLTEYLKVRSHDPEEAIRHDVIVSIVTAAKKDILLVNDHLLNFVRERTLDKRWRVRKEAMMGLAQIYKKYALQSAAGKDAAKQIAWIKDKLLHIYYQNSIDDRLLVERIFAQYMVPHNLETTERMKCLYYLYATLDLNAVKALNEMWKCQNLLRHQVKDLLDLIKQPKTDASVKAIFSKVMVITRNLPDPGKAQDFMKKFTQVLEDDEKIRKQLEVLVSPTCSCKQAEGCVREITKKLGNPKQPTNPFLEMIKFLLERIAPVHIDTESISALIKQVNKSIDGTADDEDEGVPTDQAIRAGLELLKVLSFTHPISFHSAETFESLLACLKMDDEKVAEAALQIFKNTGSKIEEDFPHIRSALLPVLHHKSKKGPPRQAKYAIHCIHAIFSSKETQFAQIFEPLHKSLDPSNLEHLITPLVTIGHIALLAPDQFAAPLKSLVATFIVKDLLMNDRLPGKKTTKLWVPDEEVSPETMVKIQAIKMMVRWLLGMKNNHSKSGTSTLRLLTTILHSDGDLTEQGKISKPDMSRLRLAAGSAIVKLAQEPCYHEIITLEQYQLCALAINDECYQVRQVFAQKLHKGLSRLRLPLEYMAICALCAKDPVKERRAHARQCLVKNINVRREYLKQHAAVSEKLLSLLPEYVVPYTIHLLAHDPDYVKVQDIEQLKDVKECLWFVLEILMAKNENNSHAFIRKMVENIKQTKDAQGPDDAKMNEKLYTVCDVAMNIIMSKSTTYSLESPKDPVLPARFFTQPDKNFSNTKNYLPPEMKSFFTPGKPKTTNVLGAVNKPLSSAGKQSQTKSSRMETVSNASSSSNPSSPGRIKGRLDSAEMDHAENEDYTMSSPLPGKKSDKRDDSDLVRAELEKPRGRKKTPVTEQEEKLGMDDLTKLVQEQKPKGSQRSRKRGHTASESDEQQWPEEKRLKEDILENEDEQNSPPKKGKRGRPPKPLGGGTPKEEPTMKTSKKGSKKKSGPPAPEEEEEEERQSGNTEQKSKSKQHRVSRRAQQRAESPESSAIESTQSTPQKGRGRPSKTPSPSQPKKNVRVGRSKQAATKENDSSEEVDVFQGSSPVDDIPQEETEEEEVSTVNVRRRSAKRERR |
|  | binds | Flag-tagged Pds5b-Ser1177,1182,1209Ala (3A), phosphorylated by Cdk1/2-cyclin A2 in vitro (natural protein) MAHSKTRTNDGKITYPPGVKEISDKISKEEMVRRLKMVVKTFMDMDQDSEEEKELYLNLALHLASDFFLKHPDKDVRLLVACCLADIFRIYAPEAPYTSPDKLKDIFMFITRQLKGLEDTKSPQFNRYFYLLENIAWVKSYNICFELEDSNEIFTQLYRTLFSVINNGHNQKVHMHMVDLMSSIICEGDTVSQELLDTVLVNLVPAHKNLNKQAYDLAKALLKRTAQAIEPYITNFFNQVLMLGKTSISDLSEHVFDLILELYNIDSHLLLSVLPQLEFKLKSNDNEERLQVVKLLAKMFGAKDSELASQNKPLWQCYLGRFNDIHVPIRLECVKFASHCLMNHPDLAKDLTEYLKVRSHDPEEAIRHDVIVSIVTAAKKDILLVNDHLLNFVRERTLDKRWRVRKEAMMGLAQIYKKYALQSAAGKDAAKQIAWIKDKLLHIYYQNSIDDRLLVERIFAQYMVPHNLETTERMKCLYYLYATLDLNAVKALNEMWKCQNLLRHQVKDLLDLIKQPKTDASVKAIFSKVMVITRNLPDPGKAQDFMKKFTQVLEDDEKIRKQLEVLVSPTCSCKQAEGCVREITKKLGNPKQPTNPFLEMIKFLLERIAPVHIDTESISALIKQVNKSIDGTADDEDEGVPTDQAIRAGLELLKVLSFTHPISFHSAETFESLLACLKMDDEKVAEAALQIFKNTGSKIEEDFPHIRSALLPVLHHKSKKGPPRQAKYAIHCIHAIFSSKETQFAQIFEPLHKSLDPSNLEHLITPLVTIGHIALLAPDQFAAPLKSLVATFIVKDLLMNDRLPGKKTTKLWVPDEEVSPETMVKIQAIKMMVRWLLGMKNNHSKSGTSTLRLLTTILHSDGDLTEQGKISKPDMSRLRLAAGSAIVKLAQEPCYHEIITLEQYQLCALAINDECYQVRQVFAQKLHKGLSRLRLPLEYMAICALCAKDPVKERRAHARQCLVKNINVRREYLKQHAAVSEKLLSLLPEYVVPYTIHLLAHDPDYVKVQDIEQLKDVKECLWFVLEILMAKNENNSHAFIRKMVENIKQTKDAQGPDDAKMNEKLYTVCDVAMNIIMSKSTTYSLESPKDPVLPARFFTQPDKNFSNTKNYLPPEMKSFFTPGKPKTTNVLGAVNKPLSSAGKQSQTKSSRMETVSNASSSSNPSSPGRIKGRLDSAEMDHAENEDYTMSSPLPGKKSDKRDDSDLVRAELEKPRGRKKTPVTEQEEKLGMDDLTKLVQEQKPKGSQRSRKRGHTASESDEQQWPEEKRLKEDILENEDEQNSPPKKGKRGRPPKPLGGGTPKEEPTMKTSKKGSKKKSGPPAPEEEEEEERQSGNTEQKSKSKQHRVSRRAQQRAESPESSAIESTQSTPQKGRGRPSKTPSPSQPKKNVRVGRSKQAATKENDSSEEVDVFQGSSPVDDIPQEETEEEEVSTVNVRRRSAKRERR |
| binds |  | Flag-tagged Pds5b-Ser1161,1166,1177,1182,1209Ala (5A), untreated or exposed to Nek2a and Cdk1/2-cyclin A2 (natural protein) MAHSKTRTNDGKITYPPGVKEISDKISKEEMVRRLKMVVKTFMDMDQDSEEEKELYLNLALHLASDFFLKHPDKDVRLLVACCLADIFRIYAPEAPYTSPDKLKDIFMFITRQLKGLEDTKSPQFNRYFYLLENIAWVKSYNICFELEDSNEIFTQLYRTLFSVINNGHNQKVHMHMVDLMSSIICEGDTVSQELLDTVLVNLVPAHKNLNKQAYDLAKALLKRTAQAIEPYITNFFNQVLMLGKTSISDLSEHVFDLILELYNIDSHLLLSVLPQLEFKLKSNDNEERLQVVKLLAKMFGAKDSELASQNKPLWQCYLGRFNDIHVPIRLECVKFASHCLMNHPDLAKDLTEYLKVRSHDPEEAIRHDVIVSIVTAAKKDILLVNDHLLNFVRERTLDKRWRVRKEAMMGLAQIYKKYALQSAAGKDAAKQIAWIKDKLLHIYYQNSIDDRLLVERIFAQYMVPHNLETTERMKCLYYLYATLDLNAVKALNEMWKCQNLLRHQVKDLLDLIKQPKTDASVKAIFSKVMVITRNLPDPGKAQDFMKKFTQVLEDDEKIRKQLEVLVSPTCSCKQAEGCVREITKKLGNPKQPTNPFLEMIKFLLERIAPVHIDTESISALIKQVNKSIDGTADDEDEGVPTDQAIRAGLELLKVLSFTHPISFHSAETFESLLACLKMDDEKVAEAALQIFKNTGSKIEEDFPHIRSALLPVLHHKSKKGPPRQAKYAIHCIHAIFSSKETQFAQIFEPLHKSLDPSNLEHLITPLVTIGHIALLAPDQFAAPLKSLVATFIVKDLLMNDRLPGKKTTKLWVPDEEVSPETMVKIQAIKMMVRWLLGMKNNHSKSGTSTLRLLTTILHSDGDLTEQGKISKPDMSRLRLAAGSAIVKLAQEPCYHEIITLEQYQLCALAINDECYQVRQVFAQKLHKGLSRLRLPLEYMAICALCAKDPVKERRAHARQCLVKNINVRREYLKQHAAVSEKLLSLLPEYVVPYTIHLLAHDPDYVKVQDIEQLKDVKECLWFVLEILMAKNENNSHAFIRKMVENIKQTKDAQGPDDAKMNEKLYTVCDVAMNIIMSKSTTYSLESPKDPVLPARFFTQPDKNFSNTKNYLPPEMKSFFTPGKPKTTNVLGAVNKPLSSAGKQSQTKSSRMETVSNASSASNPSAPGRIKGRLDSAEMDHAENEDYTMSSPLPGKKSDKRDDSDLVRAELEKPRGRKKTPVTEQEEKLGMDDLTKLVQEQKPKGSQRSRKRGHTASESDEQQWPEEKRLKEDILENEDEQNSPPKKGKRGRPPKPLGGGTPKEEPTMKTSKKGSKKKSGPPAPEEEEEEERQSGNTEQKSKSKQHRVSRRAQQRAESPESSAIESTQSTPQKGRGRPSKTPSPSQPKKNVRVGRSKQAATKENDSSEEVDVFQGSSPVDDIPQEETEEEEVSTVNVRRRSAKRERR |
